Test results as given in US8470576B2, “Group of novel enantioselective microbial nitrile hydratases with broad substrate specificity” (B.R.A.I.N. AG, priority 2006, dated 2013).

Tests used:
Type in all cases: biochemical
[1] = system: NHase from Raoultella terrigena, 77.1; test: Substrate spectrum, relative activity of the NHase from strain 77.1; conditions: cell free crude cell extracts; 2-phenylpropionitrile set to 100%
Experimental: (§1) If not otherwise indicated enzyme samples were prepared as follows: the cells from 1 ml of the culture were washed with 50 mM Tris/HCl pH 7.5 and resuspended in 750 μl of the same buffer. This suspension was incubated at 30° C. in a thermomixer at 1000 rpm. The biotransformation was started by addition of the substrate 2-phenylpropionitrile (PPN) in 50 mM Tris/HCl pH 7.5. The concentration of the substrate was 1 mM, if not otherwise stated. The reaction was stopped after 1 min, 5 min or 10 min as indicated by addition of 1 M HCl. Cells were removed by centrifugation and the supernatant analysed by HPLC for the presence of the corresponding amide. The HPLC analysis was carried out on a system comprising a Surveyor 4 channel Pump, AutoSampler and UVNIS detector at 210 nm from Thermo Finnigan on a Grom-Sil 1200DS-3 cp 3 μm (125×4.6 mm) reverse phase column. As mobile phase, acetonitrile and 0.3% H3PO4 were used in a ratio of 50:50 at a flow of 0.7 ml/min, respectively.
(§2) For the enzyme according Seq ID No. 2 and 4 (Raoultella terrigena, 77.1) and Seq ID. No. 18 and 20 (Klebsiella oxytoca, 38.1.2) the substrate spectrum was determined. The activities were compared to the activity towards 2-phenylpropionitrile which was set to 100%. Both enzymes are capable of the conversion of aliphatic as well as aromatic substrates.

[2] = system: NHase from Klebsiella oxytoca, 38.1.2; test: Substrate spectrum, relative activity of the NHase from strain 38.1.2; conditions: lyophilized cells; 2-phenylpropionitrile set to 100%
Experimental: as §1, §2

[3] = Enantioselectivity of NHases towards rac-mandelonitrile (washed cells, chiral HPLC); conditions: for enantiopreference: (R/S)-mandelonitrile; for Eapp-value: kinetic resolution of (R/S)-mandelonitrile; for Eapp-value heterologously expressed / Eapp-value homologously expressed: rac-mandelonitrile; for Eapp-value heterologously expressed: heterologously expressed NHase; for Eapp-value homologously expressed: homologously expressed NHase
Experimental: For the determination of enantioselectivity towards rac-mandelonitrile and 2-phenylpropionitrile 40-50 mg of washed cells were resuspended in 1 ml of 50 mM Tris/HCl pH 7.5. 100 μl of cell suspension were mixed with 800 μl 50 mM Tris/HCl pH 7.5 and incubated at 30° C. in a thermomixer at 1000 rpm. The biotransformation was started by addition of 100 μl of 10 mM rac-mandelonitrile or rac-2-phenylpropionitrile in 50 mM Tris/HCl pH 7.5. The reaction was stopped by addition of 100 μl 1M HCl after 1, 5 or 10 min. Cells were removed by centrifugation and the supernatant analysed by chiral HPLC for the presence of mandeloamide and phenylpropionamide, respectively. rac-Mandeloamide was analysed on a HPLC comprising a Surveyor 4 channel Pump, AutoSampler and UVNIS detector at 210 nm from Thermo Finnigan on a Nucleodex β-OH column (Macherey & Nagel) using 50% methanol/water:water (40:60) as mobile phase at a flow rate of 0.7 ml/min. The apparent enantiomeric ratio (Eapp) of the conversion of mandelonitrile was calculated according to Straathof and Jongejan for […] (see example 9). In case of 2-phenylpropionamide, the samples were lyophilized and resuspended in n-hexane: 2-propanol (80:20). Prior to injection, the samples were additionally dried with sodium sulfate and were centrifugated at 16,000 g for 5 min. The supernatants were analyzed using a Chiracel OD column (Daicel) on a Spectra System (AS3000, P2000, UV2000 at 210 nm) from Thermo Separation Products with n-hexane: 2-propanol (80:20) as mobile phase at a flow rate of 0.5 ml/min. The enantiomeric ratio (E) of the conversion of PPN was calculated according to Chen et al. […]

[4] = Enantioselectivity of NHases towards rac-2-phenylpropionitrile (washed cells, chiral HPLC); conditions: for E-value: kinetic resolution of rac-2-phenylpropionitrile; for enantiopreference: rac-2-phenylpropionitrile
Experimental: For the determination of enantioselectivity towards rac-mandelonitrile and 2-phenylpropionitrile 40-50 mg of washed cells were resuspended in 1 ml of 50 mM Tris/HCl pH 7.5. 100 μl of cell suspension were mixed with 800 μl 50 mM Tris/HCl pH 7.5 and incubated at 30° C. in a thermomixer at 1000 rpm. The biotransformation was started by addition of 100 μl of 10 mM rac-mandelonitrile or rac-2-phenylpropionitrile in 50 mM Tris/HCl pH 7.5. The reaction was stopped by addition of 100 μl 1M HCl after 1, 5 or 10 min. Cells were removed by centrifugation and the supernatant analysed by chiral HPLC for the presence of mandeloamide and phenylpropionamide, respectively. rac-Mandeloamide was analysed on a HPLC comprising a Surveyor 4 channel Pump, AutoSampler and UVNIS detector at 210 nm from Thermo Finnigan on a Nucleodex β-OH column (Macherey & Nagel) using 50% methanol/water:water (40:60) as mobile phase at a flow rate of 0.7 ml/min. The apparent enantiomeric ratio (Eapp) of the conversion of mandelonitrile was calculated according to Straathof and Jongejan for asymmetric catalysis (see example 9). In case of 2-phenylpropionamide, the samples were lyophilized and resuspended in n-hexane: 2-propanol (80:20). Prior to injection, the samples were additionally dried with sodium sulfate and were centrifugated at 16,000 g for 5 min. The supernatants were analyzed using a Chiracel OD column (Daicel) on a Spectra System (AS3000, P2000, UV2000 at 210 nm) from Thermo Separation Products with n-hexane: 2-propanol (80:20) as mobile phase at a flow rate of 0.5 ml/min. The enantiomeric ratio (E) of the conversion of PPN was calculated according to Chen et al.

[5] = Activity of enzyme samples after heterologous expression of NHases in E. coli towards PPN; conditions: 1 mM PPN; stopped after 1 min; host E. coli BL21 (DE3) (a) or E. coli Rosetta (DE3) (b)
Experimental: The amplified α-subunits were ligated to pET22b whereas the β-subunits were ligated to pET26b by use of the unique NdeI and XhoI restriction enzyme recognition sites. E. coli BL21 (DE3) or E. coli Rosetta (DE3) was cotransformed with the vectors carrying the genes for the corresponding α- and β-subunits of the NHases. Freshly transformed cells were grown over night at 37° C. in 5 ml LB-medium containing 100 μg/ml ampicillin, 25 μg/ml kanamycin and 2% (w/v) glucose. In case of E. coli Rosetta (DE3) 12.5 μg/ml chloramphenicol was additionally used. 1 ml of this culture was used to inoculate 100 ml of LB-medium containing 100 μg/ml ampicillin, 25 μg/ml kanamycin and 1% (w/v) glucose. Cells were incubated at 20° C. or 30° C. on a gyratory shaker at 100 rpm. At an optical density O.D.595=1 cells were induced by addition of 100 μg/ml IPTG. Simultaneously, CoCl2*6H2O was added in a concentration of 250 μM. When the P16K activator protein from the strain Brevibacterium linens was coexpressed with the corresponding NHase E. coli Rosetta (DE3) pET22—32B1α pET26—32B.1β pBBR5—32B_P16K was grown in LB-medium containing 100 μg/ml ampicillin, 25 μg/ml kanamycin, 12.5 μg/ml chloramphenicol and 10 μg/ml gentamycin and 1% (w/v) glucose. Samples were taken 24 h after induction.
as §1

N#CC(O)c1ccccc1 (stereo not drawn) [mandelonitrile]
rel. activity 77.1 [1]: 5%
rel. activity 38.1.2 [2]: 9%

N#Cc1ccccc1 [benzonitrile]
rel. activity 77.1 [1]: 18%
rel. activity 38.1.2 [2]: 25%

CC(C#N)c1ccccc1 (stereo not drawn) [2-phenyl-propionitrile]
rel. activity 77.1 [1]: 100%
rel. activity 38.1.2 [2]: 100%

methacrylonitrile
rel. activity 77.1 [1]: 109%
rel. activity 38.1.2 [2]: 138%

CCC(C#N)c1ccccc1 (stereo not drawn) [2-phenyl-butyronitrile]
rel. activity 77.1 [1]: 1%
rel. activity 38.1.2 [2]: 18%

butyronitrile
rel. activity 77.1 [1]: 242%
rel. activity 38.1.2 [2]: 281%

N#CCc1ccccc1 [phenyl-acetonitrile]
rel. activity 77.1 [1]: 1%
rel. activity 38.1.2 [2]: 1%

N#Cc1cccnc1 [3-cyanopyridine]
rel. activity 77.1 [1]: 21%

B1: NHase Seq ID No. 6 and 8: nitrile hydratase of Raoultella terrigena strain 37.1, α-subunit SEQ ID NO 6, β-subunit SEQ ID NO 8 (protein)
alpha: MSHKHDHDHTEPPIDIELRVRALESLLQEKGLIDPAALDELIDTYEHKVGPRNGAQVVARAWSDPEYKRRLMENATAAISELGFSGIQGEDMLVVENTPDVHNVTVCTLCSCYPWPVLGLPPVWYKSAPYRSRIVIDPRGVLAEFGLHIPESKEIRVWDSSAELRYLVLPERPAGTDGWSEAQLSELISRDSMIGTGVVTAP
beta: MNGIHDLGGMHGFGPIPTEENEPYFHHEWERRVFPMFASLFVGGHFNVDEFRHSIECMPPADYLQSSYYEHWLHAFETLLLAKGVITVDELWGGAKPTLCKPGTPVLTQDMVSMVVSTGGSARVSHDVAPRFRVGDRVRTKNFNPTTHTRLPRYARDKVGRIEIAHGVFITPDTAAHGLGEHPQHVYSVSFTAQELWGEPRPDNVFIDLWDDYLEEA
modifications: Raoultella terrigena, strain 37.1
enantiopreference [3]: (S)
Eapp-value [3]: 18
Eapp-value heterologously expressed [3]: 18
Eapp-value homologously expressed [3]: 17
E-value [4]: 47
enantiopreference [4]: (S)
spec. activity [5]: 2.8 μkat/g cdw
vol. activity [5]: 5.5 μkat/L cultur

B2: NHase Seq ID No. 10 and 12: nitrile hydratase of Pantoea sp. strain 17.3.1, α-subunit SEQ ID NO 10, β-subunit SEQ ID NO 12 (protein)
alpha: MSNHDVLPSESALKVRAIQSLLTEKGLLDPQTSDAIVDYFENKIGPRNGASVVARAWLDAEFKKKLLEDGTTAISEMGFSGAEGAVIHVLENTDAVHNIVVCTLCSCYPWPVLGLPPIWFKSAQYRSRVVIDPRGVLKEFGTELPPEKEIRVWDSNAEIRYFVLPQRPAGTENLSEEQLAARVTRDSMIGTGIL
beta: MNGIHDCGGMQNLGAIPLEENEPVFHAEWEKAILVMTINGFLSGSILVDNFRHQIEKMPASEYLLTSYYEHWVFAMEHLLINNNTITREALESRMAELAERVEMSAIAKETFLELIKTTPNYHRESDAIARFAPGDTIRTCELNTPGHTRLPRYARDKTGVIIAMYGVCVFPDSLTRDGSEDPQHVYLVQFSSADLWGAGSEPFTVSLSLFESYIAEKVE
modifications: Pantoea sp., strain 17.3.1
enantiopreference [3]: (S)
Eapp-value [3]: 4
Eapp-value heterologously expressed [3]: 4
Eapp-value homologously expressed [3]: 5
E-value [4]: 2
enantiopreference [4]: (S)
spec. activity [5]: 0.4 μkat/g cdw
vol. activity [5]: 0.6 μkat/L cultur

B3: NHase Seq ID No. 14 and 16: nitrile hydratase of Brevibacterium linens strain 32B.1, α-subunit SEQ ID NO 14, β-subunit SEQ ID NO 16 (protein)
alpha: MSDKIRSQEEIAARVKALESMLIEKGIMTTQAIDRLVEIYENEVGPQLGAKVVAKAWSDPGFKSRLLTDATGACGELGIGGLQGEDMVVVEDTDTVHNVIVCTLCSCYPWPVLGLPPNWYKDPQYRAAICREPRKVLSESFGYTVSNDVEIRVWDSSSEMRYWVLPRRPDGTDGWTEDQLADLVSRDSMIGVGPTAKAQS
beta: MNGVFDLAGTDGLGPVVVPDDEPIFRAEWEKAAFGMFSMCFRGGFFGVDQFRYGMEQIDPAVYLKSPYYEHWIHTVEYHGERTGQLDLDELDRRTEYYLANPDAPMPEHADDPELLAFINAVVPAGAPAKRESDKIARFQVGDTVKVLRDSPRGHTRRARYIRGATGEIVLAHGTFIYPDTAGNNLGECPEHVYTVRFTAEELWGAETAEPNQSVYFDVWDPYIELVTPRGAQSA
modifications: Brevibacterium linens, strain 32B.1
enantiopreference [3]: (S)
Eapp-value [3]: 4
Eapp-value heterologously expressed [3]: 4
Eapp-value homologously expressed [3]: 4
E-value [4]: 8
enantiopreference [4]: (S)
spec. activity [5]: 16.9 μkat/g cdw
vol. activity [5]: 25.3 μkat/L cultur
